Where a chain is given by its changes, count along the chain named. In names and notes the source's numbering stands.
B1: PfHPPDm-F372A-02: nucleotide sequence encoding Pseudomonas fluorescens HPPD with F372A; vector DBN11771 (nucleic acid)
DNA: ATGGCCGATTTGTACGAGAACCCAATGGGACTCATGGGTTTCGAGTTCATTGAGTTCGCTTCCCCCACCCCAGGTACTTTGGAGCCTATTTTCGAGATCATGGGCTTCACTAAGGTTGCCACACACAGGTCTAAGAATGTGCATCTCTACCGCCAAGGAGAGATTAACCTGATCCTTAACAATGAGCCTAATAGCATCGCCTCATACTTCGCTGCTGAGCATGGTCCATCTGTTTGCGGCATGGCTTTCAGAGTGAAGGATTCACAAAAGGCCTACAACAGGGCTTTGGAGCTCGGCGCCCAGCCCATTCATATCGACACCGGACCTATGGAGCTGAATCTTCCTGCCATTAAGGGCATCGGCGGAGCTCCATTGTACCTCATTGATCGCTTCGGCGAGGGCTCCTCTATCTACGATATCGACTTCGTGTACCTGGAGGGCGTTGAGAGAAACCCTGTGGGAGCTGGTCTGAAGGTTATCGACCACCTTACTCATAATGTTTACAGAGGAAGGATGGTGTACTGGGCCAACTTCTACGAGAAGCTGTTCAATTTCCGCGAGGCTAGATACTTCGATATTAAGGGCGAGTACACAGGACTTACCTCCAAGGCCATGTCTGCTCCCGACGGTATGATTAGGATCCCATTGAACGAGGAGAGCTCAAAGGGCGCCGGACAGATTGAGGAGTTCCTCATGCAATTCAATGGTGAAGGCATCCAGCACGTTGCTTTCCTGACAGATGACCTTGTGAAGACCTGGGATGCCCTCAAGAAGATTGGCATGAGGTTCATGACCGCTCCACCTGACACTTACTACGAGATGTTGGAGGGACGCCTCCCTGATCATGGCGAGCCCGTTGACCAGCTGCAAGCTAGAGGAATCCTCCTGGATGGTTCCTCTGTGGAGGGCGACAAGAGGCTTTTGCTCCAAATTGCTAGCGAGACTCTTATGGGACCCGTGTTCTTCGAGTTCATCCAGAGGAAGGGCGATGACGGATTCGGCGAGGGCAACTTCAAGGCCCTGTTCGAGTCTATTGAGAGAGATCAGGTGAGGCGCGGCGTTCTTACAGCTGACTGA
modifications: PfHPPDm-F372A-02 Nucleotide Sequence
notes: vector DBN11771
B2: PfHPPDm-F383W-02: nucleotide sequence encoding Pseudomonas fluorescens HPPD with F383W; vector DBN11772 (nucleic acid)
DNA: B1 DNA with G934T, C935T, T936C, T962G, C963G
modifications: PfHPPDm-F383W-02 Nucleotide Sequence
notes: vector DBN11772

Test system: Arabidopsis thaliana T1 plants
Test: Mesotrione tolerance of transgenic Arabidopsis thaliana T1 plants (spray, bleached leaf area grade, damage score)
Type: in vivo
Design: Scores: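 damage score 0-100 computed as Σ(N×S)/(T×M)×100 over grades 0-3 with higher meaning more damage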
Conditions: Arabidopsis thaliana T1 plants; for Grade 0 (classification and statistics of the grade of pesticide damage; number of plants) / Grade 1 (classification and statistics of the grade of pesticide damage; number of plants) / Grade 2 (classification and statistics of the grade of pesticide damage; number of plants) / Grade 3 (classification and statistics of the grade of pesticide damage; number of plants): 16 plants
Description: T1 transformants were initially selected from the untransformed seeds using a glufosinate selection scheme. The Arabidopsis thaliana T1 plants (AsHPPD-02) into which the AsHPPD-02 nucleotide sequence was introduced, the Arabidopsis thaliana T1 plants (AsHPPDm-F372A-02) into which the AsHPPDm-F372A-02 nucleotide sequence was introduced, the Arabidopsis thaliana T1 plants (AsHPPDm-F383W-02) into which the AsHPPDm-F383W-02 nucleotide sequence was introduced, the Arabidopsis thaliana T1 plants (AsHPPDm-F372A-F383W-02) into which the AsHPPDm-F372A-F383W-02 nucleotide sequence was introduced, the Arabidopsis thaliana T1 plants (DBN11726N) into which the control recombinant expression vector DBN11726N was introduced, and the wild-type Arabidopsis thaliana plants (CK) (18 days after sowing) were sprayed respectively with topramezone at three concentrations (100 g ai/ha (four-fold field concentration, 4×), 200 g ai/ha (eight-fold field concentration, 8×), and 0 g ai/ha (water, 0×)), isoxaflutole at three concentrations (140 g ai/ha (two-fold field concentration, 2×), 280 g ai/ha (four-fold field concentration, 4×), and 0 g ai/ha (water, 0×)), and mesotrione at three concentrations (210 g ai/ha (two-fold field concentration, […]), 420 g ai/ha (four-fold field concentration, 4×), and 0 g ai/ha (water, 0×)), to determine the tolerance of Arabidopsis thaliana to the herbicides. The degree of damage caused by the herbicide was measured for each plant according to the proportion of bleached leaf area (the proportion of bleached leaf area=bleached leaf area/total leaf area×100%) 7 days after spraying (7 DAT): the case where there is basically no bleached phenotype is defined as grade 0, the case where the proportion of bleached leaf area is less than 50% is defined as grade 1, the case where the proportion of bleached leaf area is more than 50% is defined as grade 2, and the case where the proportion of bleached leaf area is 100% grade is defined as grade 3.
According to the method as described above in point 6 of Example 1, the aforementioned Arabidopsis thaliana T1 plants and wild-type Arabidopsis thaliana plants (CK) (18 days after sowing) were sprayed respectively with topramezone at three concentrations (25 g ai/ha (one-fold field concentration, 1×). 100 g ai/ha (four-fold field concentration, 4×), and 0 g ai/ha (water, 0×)), isoxaflutole at three concentrations (35 g ai/ha (half-fold field concentration, 0.5×). 70 g ai/ha (one-fold field concentration, 1×), and 0 g ai/ha (water, 0×)), and mesotrione at three concentrations (52.5 g ai/ha (half-fold field concentration, 0.5×), 105 g ai/ha (one-fold field concentration, 1×), and 0 g ai/ha (water, 0×)) to detect the tolerance of Arabidopsis thaliana to the herbicides.
According to the method as described above in point 6 of Example 1, the aforementioned Arabidopsis thaliana T1 plants and wild-type Arabidopsis thaliana plants (CK) (18 days after sowing) were sprayed with topramezone at three different concentrations (i.e., 100 g ai/ha (four-fold field concentration, 4×), 200 g ai/ha (eight-fold field concentration, 8×) and 0 g ai/ha (water, 0×)), isoxaflutole at three different concentrations (i.e., 140 g ai/ha (two-fold field concentration, 2×), 280 g ai/ha (four-fold field concentration, 4×) and 0 g ai/ha (water, 0×)), and mesotrione at three different concentrations (i.e., 210 g ai/ha (two-fold field concentration, 2×), 420 g ai/ha (four-fold field concentration, 4×) and 0 g ai/ha (water, 0×)) respectively to detect the herbicide tolerance of Arabidopsis thaliana. […]

Molecule | Resistance evaluation (mesotrione 52.5 g ai/ha) | Scores (mesotrione 52.5 g ai/ha) | Grade 0 (classification and statistics of the grade of pesticide damage; number of plants) (mesotrione 52.5 g ai/ha) | Grade 1 (classification and statistics of the grade of pesticide damage; number of plants) (mesotrione 52.5 g ai/ha) | Grade 2 (classification and statistics of the grade of pesticide damage; number of plants) (mesotrione 52.5 g ai/ha) | Grade 3 (classification and statistics of the grade of pesticide damage; number of plants) (mesotrione 52.5 g ai/ha) | Resistance evaluation (mesotrione 105 g ai/ha) | Scores (mesotrione 105 g ai/ha) | Grade 0 (classification and statistics of the grade of pesticide damage; number of plants) (mesotrione 105 g ai/ha) | Grade 1 (classification and statistics of the grade of pesticide damage; number of plants) (mesotrione 105 g ai/ha) | Grade 2 (classification and statistics of the grade of pesticide damage; number of plants) (mesotrione 105 g ai/ha) | Grade 3 (classification and statistics of the grade of pesticide damage; number of plants) (mesotrione 105 g ai/ha)
B1 | Moderately | 31 | 6 | 7 | 1 | 2 | Poorly resistant | 58 | 0 | 4 | 12 | 0
B2 | Non-resistant | 77 | 0 | 0 | 11 | 5 | Non-resistant | 100 | 0 | 0 | 0 | 16

— patent publication US20250043302A1, “MUTATED HYDROXYPHENYLPYRUVATE DIOXYGENASE POLYPEPTIDE, AND CODING GENE AND USE THEREOF” (BEIJING DABEINONG BIOTECHNOLOGY CO., LTD., priority 2021, published 2025)
